Reference: patent US10272135B2, “Apolipoprotein O and fragments thereof for inducing apoptosis in a cancerous cell” (INSERM (INSTITUT NATIONAL DE LA SANTÉ ET DE LA RECHERCHE …, priority 2014, dated 2019)

What was measured:
[1] = system: H9c2 cardiac myoblasts; assay: Measurement of O2 consumption (Oroboros Oxygraph-2k) in cardiac myoblasts; format: cell-based
Description: (§1) After ethical committee approval, all patients in this study gave written consent for sample collection and molecular analysis prior to inclusion. Patients were carefully selected by physicians from the Department of Cardiology, Toulouse University Hospital, prior to coronary by-pass surgery. Bioinformatics. Microarray expression data from human heart samples were downloaded from the GEO repository (GSE1145). This series consisted of 107 myocardial samples collected from patients undergoing cardiac transplantation whose failure arises from different etiologies (e.g. idiopathic dilated cardiomyopathy, ischemic cardiomyopathy, valvular cardiomyopathy, and hypertrophic cardiomyopathy) and from “normal” organ donors whose hearts cannot be used for transplants. Arrays were intensity normalized and hierarchical clustering (average group linkage, Pearson correlation, threshold r=0.8) was applied to identify groups of co-expressed genes. ApoO expression levels were plotted for the 107 human hearts tested and used to define relevant molecular pathways using both Toppgene and Ingenuity Pathway Analysis (Ingenuity systems, Redwood City, Calif., USA). ApoO subcellular localization was predicted using Mitopred, mitoprot and YLoc. Animals: All animal Studies followed the INSERM Institute Animal Facility guidelines and were approved by the animal care committees of the INSERM I2MC UMR 1048. All animal procedures were performed according to the guidelines of the French Ministry of Agriculture. Animals were housed at the Toulouse I2MC animal facility in a room lit 12 h per day (6 AM-6 PM) at an ambient temperature of 22+/−1° C. Construction of ApoO Expression Vectors To overexpress human ApoO (pTT-ApoO), the ApoO coding sequence was amplified using primers hApoO5BamPTT (SEQ ID NO: 2) and hApoO3BamPTT (SEQ ID NO: 3) and cloned into the BamH1 site of pTT expression vector. pSNAP-ApoO was generated by PCR amplification of pTT-ApoO using primers SnapApoEcorV-F (SEQ ID NO: 4) and SnapApoEcorV-R (SEQ ID NO: 5) and cloned into the EcoRV site of pSNAP-Tag® (Ozyme, Saint-Quentin-en-Yvelines, France). pGEX2T-ApoO was constructed by PCR amplification of pTT-ApoO using hApoOpGEX1FBam (SEQ ID NO: 6) and hApoOpGEX1RSma (SEQ ID NO: 7) and cloned into the Bam HI/Sma I site of pGEX2T (Promega, Charbonnières-les-Bains). All primers used in this work were synthesized by Eurogentec France (Angers). All restriction enzymes used were from New England Biolabs (Ozyme, Saint-Quentin-en-Yvelines). All ApoO sequences within the expression vectors were verified by DNA double strand sequencing using ABI PRISM®BigDye™ Terminator version 3.1 Ready reaction cycle sequencing kit (Life Technologies SAS, Villebon sur Yvette) and loaded on an ABI 3130XL DNA sequencing instrument (Life Technologies SAS, Villebon sur Yvette). Cell Culture and Tranfection of H9C2 Cardic Myoblasts H9c2 were obtained from the European Collection of Cell Cultures (Salisbury, England). H9c2 cells were cultured in Dulbecco's modified Eagle medium (Life Technologies SAS, Villebon sur Yvette) adjusted to contain 1.5 g/liter sodium bicarbonate and supplemented with antibiotic-antimycotic solution (Life Technologies SAS, Villebon sur Yvette) and 10% fetal bovine serum (FBS, AbCys s.a., Paris). Cells were plated on 10-cm diameter tissue culture dish and grown in a 5% CO2 incubator at 37° C. with saturating humidity with medium changes every 2 days. […]

[2] = system: mouse liver; assay: Hydrodynamics-based in vivo transfection of the mouse liver
Description: as §1

B1: ApoO: 198-amino acid apolipoprotein, SEQ ID NO: 1; tested by overexpression from expression vectors or transgene (protein, listed as Homo sapiens)
chain: MFKVIQRSVGPASLSLLTFKVYAAPKKDSPPKNSVKVDELSLYSVPEGQSKYVEEARSQLEESISQLRHYCEPYTTWCQETYSQTKPKMQSLVQWGLDSYDYLQNAPPGFFPRLGVIGFAGLIGLLLARGSKIKKLVYPPGFMGLAASLYYPQQAIVFAQVSGERLYDWGLRGYIVIEDLWKENFQKPGNVKNSPGTK
[1]; ApoO cells vs control cardiac myoblasts (FIG. 4A)
  basal oxygen consumption: two-fold increase
[1]; ApoO cells vs control, CCCP / oligomycin oxygen consumption (FIG. 4C)
  respiration coupling (RC): decreases
[2]; 48 hours after transfection (FIG. 9e)
  Caspase-3 activity in liver: confirmed
[2]; 48 hours after transfection (FIG. 9d)
  Bax expression in liver: confirmed
[2]; ApoO transfected liver vs control vector (FIG. 8c)
  diglyceride levels in liver: increased
[2]; ApoO transfected liver vs control vector (FIG. 8d)
  intracellular triglycerides in liver: did not significantly modify
[2]; in vivo transfected mouse liver
  oxygen consumption of isolated liver mitochondria: significant increase
